Laboratory results reported in publication PMC12339391, “PEX39 facilitates the peroxisomal import of PTS2-containing proteins” (Nature Cell Biology, 2025).
Where no end group is shown, it is not given here.

T1: FLAG-PEX7 (recombinant N-terminally FLAG-tagged human PEX7) (human, UniProt O00628 1-323)
T1 construct: PEX7, human; also called recombinant human FLAG-tagged PEX7; source: Hi5 insect cells (baculovirus, pACEBac1), purified (anti-FLAG M2 beads, FLAG peptide elution); not shown: FLAG, N-terminal, kept
T1 sequence (looked up): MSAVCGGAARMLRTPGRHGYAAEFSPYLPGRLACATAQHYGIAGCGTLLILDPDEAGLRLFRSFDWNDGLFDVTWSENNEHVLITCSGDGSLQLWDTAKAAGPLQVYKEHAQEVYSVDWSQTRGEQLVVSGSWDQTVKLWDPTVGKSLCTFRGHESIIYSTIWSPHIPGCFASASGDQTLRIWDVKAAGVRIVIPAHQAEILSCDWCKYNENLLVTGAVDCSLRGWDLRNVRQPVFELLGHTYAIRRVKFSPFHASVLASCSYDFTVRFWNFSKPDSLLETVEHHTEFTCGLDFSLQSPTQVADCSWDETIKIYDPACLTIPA

B1: GST-HsPEX39 (N-terminally GST-tagged human PEX39, C6ORF226) (natural protein, UniProt Q5I0X4 1-101, looked up)
chain: MERPRSPQCSAPASASASVTLAQLLQLVQQGQELPGLEKRHIAAIHGEPTASRLPRRPKPWEAAALAESLPPPTLRIGTAPAEPGLVEAATAPSSWHTVGP
notes: HsPEX39 (C6ORF226), human; plasmid pGEX-HsPEX39 (pGEX-6-P1); 101 residues by the printed limits of the 48–101 variant; also called recombinant HsPEX39; wild-type (WT) HsPEX39; source: E. coli BL21(DE3), purified (Glutathione Sepharose 4B); not shown: GST, N-terminal, kept
B2: NtPEX13 (HsPEX13 residues 1–36 fused to Sumo1 with a hexa-histidine tag) (domain or fragment, human, UniProt Q92968 1-36, looked up)
chain: MASQPPPPPKPWETRRIPGAGPGPGPGPTFQSADLG
modifications: also: fused to Sumo1 with a hexa-histidine tag
notes: PEX13, human, residues 1–36; also called NtPEX13.Sumo.His; PEX13 N terminus; source: recombinant (plasmid pET23a-NtPEX13.Sumo.His); not shown: His6, C-terminal, kept

Tests used:
[1] = target: T1, FLAG-PEX7 (recombinant N-terminally …); assay: native gel or EMSA; only recombinant proteins, two at a time (approximately 5 µg each of FLAG-PEX7, GST-HsPEX39, His-PEX5(1–324), His-PHYH); Coomassie staining; excised bands immunoblotted; details: both partners purified
[2] = target: T1, FLAG-PEX7 (recombinant N-terminally …); assay: SEC; Superdex 200 Increase 3.2/300, 50 mM Tris-HCl pH 7.5, 150 mM NaCl, 1 mM EDTA; proteins (10–15 µg) alone or mixed, 15 min at 23 °C before injection; fractions on SDS-PAGE; details: both partners purified

| Binder | binding result [1] | binding result [2] |
| --- | --- | --- |
| B1 | binds |  |
| B2 |  | binds |
